B1: unnamed (parent)
chain 1: MSHRLTCAYSGFSSDIHAVWVRQAAGKGLEWIAYISDSSAYIYYSQSVRGRFTISRDNSRKQVYLQMNSLTTEDSAVYYCTREGSGFAFDYWGKGTGGGGSGGGGSGGGGSVTISATGSSNIGADLSWYLQKTGETPKLLIYKASTRSSGTPPRFSGSTSGSQYTLTISGVQAEDAGDYYCLGDHGGGALTFGGGTK
chain 2: NIEWGDEVDLEM
B2: unnamed (parent)
chain 1: B1 chain 1
chain 2: DAIGMGSIGVMLAYMVRRKC
B3: unnamed (parent)
chain 1: B1 chain 1
chain 2: GYQLASEIRGTIPLSS

The values that follow come from paper PMC12724136, “Design of antibody structure-guided epitope vaccines in silico to induce potent immune responses against emerging viruses” (Journal of Virology, 2025).

The variants in the first test derive from B1. The test can be described thus: indirect ELISA. The following applies: with partner chain of the complex shown, scFv1 protein 50 µg/mL, value read at the highest peptide concentration, parent: 1.3, read off a plot. A general note: An ELISA detects its analyte on a solid surface through an enzyme-linked reagent.
For chain 2 NIEAGAAVALEM [chain 2 W4A D6A E7A D9A], the response (Binding activity) worked out at 0.53.

The test is the same for the next values; noted with them: with partner chain of the complex shown; peptides 50 µg/mL; scFv1 group of bars; parent: 1.3; read off a plot.
For chain 2 NIEAGAAVALEM [chain 2 W4A D6A E7A D9A], the response (Binding activity) worked out at 0.52.

Staying with this test, now noted: with partner chain of the complex shown; scFv1 50 µg/mL.
chain 2 NIEAGAAVALEM [chain 2 W4A D6A E7A D9A]: the EC50 (lg EC50 (µg/mL)) came out at 4.17.

The same test, now with this note: with partner chain of the complex shown; scFv1 50 µg/mL; value read at the highest peptide concentration, log10 = 2 (µg/mL); parent: 0.77; read off a plot.
As for chain 2 NIEAGAAVALEM [chain 2 W4A D6A E7A D9A], the response (Binding activity) was 0.47.

The variants in another test derive from B2. The test can be described thus: indirect ELISA. The following applies: with partner chain of the complex shown, scFv1 protein 50 µg/mL, value read at the highest peptide concentration, parent: 0.98, read off a plot.
For chain 2 DAIGMGAIGAMLAYMVARKC [chain 2 S7A V10A R17A], the response (Binding activity) turned out to be 0.46.

The same test, now with this note: with partner chain of the complex shown; peptides 50 µg/mL; scFv1 group of bars; parent: 0.98; read off a plot.
Consider chain 2 DAIGMGAIGAMLAYMVARKC [chain 2 S7A V10A R17A], for which the response (Binding activity) came to 0.55.

The test is the same for the next values; noted with them: with partner chain of the complex shown; scFv1 50 µg/mL.
As for chain 2 DAIGMGAIGAMLAYMVARKC [chain 2 S7A V10A R17A], the EC50 (lg EC50 (µg/mL)) is 3.96.

Staying with this test, now noted: with partner chain of the complex shown; scFv1 50 µg/mL; value read at the highest peptide concentration, log10 = 2 (µg/mL); parent: 0.95; read off a plot.
chain 2 DAIGMGAIGAMLAYMVARKC [chain 2 S7A V10A R17A]: the response (Binding activity) stood at 0.47.

The next test covers variants of B3. The test can be described thus: indirect ELISA. The following applies: with partner chain of the complex shown, scFv1 protein 50 µg/mL, value read at the highest peptide concentration, parent: 1.6, read off a plot.
Regarding chain 2 GAQLASEIAGTIPASS [chain 2 Y2A R9A L14A], the response (Binding activity) amounted to 0.63.

Staying with this test, now noted: with partner chain of the complex shown; peptides 50 µg/mL; scFv1 group of bars; parent: 1.6; read off a plot.
As to chain 2 GAQLASEIAGTIPASS [chain 2 Y2A R9A L14A], the response (Binding activity) was found to be 0.62.

Staying with this test, now noted: with partner chain of the complex shown; scFv1 50 µg/mL.
Regarding chain 2 GAQLASEIAGTIPASS [chain 2 Y2A R9A L14A], the EC50 (lg EC50 (µg/mL)) was determined as 3.57.

The test is the same for the next values; noted with them: with partner chain of the complex shown; scFv1 50 µg/mL; value read at the highest peptide concentration, log10 = 2 (µg/mL); parent: 1.9; read off a plot.
As to chain 2 GAQLASEIAGTIPASS [chain 2 Y2A R9A L14A], the response (Binding activity) came to 0.58.
